Drawing on patent publication US20160251419A1, this text covers T50 (time in minutes for 50% inhibition of fibril formation) for one substance.

The assay has as its target Recombinant Aβ1-42 (rAβ1-42 peptides) in the Thioflavin T fibril formation assay (UniProt P05067). As to the kind of experiment: cell-based or functional assay.

Recombinant Aβ1-42 (rAβ1-42 peptides) in the Thioflavin T fibril formation assay, sequence (P05067 672-713 limits assumed): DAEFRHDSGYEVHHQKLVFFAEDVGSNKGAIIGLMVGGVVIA

Regarding “control anti-rhodopsin 1D4 antibody (Abcam)”, the T50 (time in minutes for 50% inhibition of fibril formation) was found to be 25.9 min.
